The target of the experiment is T1, β1 integrins (UniProt P05556 21-798).
T1 construct: Endogenous protein of the epithelial membrane extract; also called beta 1 integrins
In words: gel overlay with HeLa membrane extract.

We go through one molecule from patent publication US7208574 (UNIVERSITY OF BRITISH COLUMBIA, dated 2007).

T1 sequence (P05556 21-798): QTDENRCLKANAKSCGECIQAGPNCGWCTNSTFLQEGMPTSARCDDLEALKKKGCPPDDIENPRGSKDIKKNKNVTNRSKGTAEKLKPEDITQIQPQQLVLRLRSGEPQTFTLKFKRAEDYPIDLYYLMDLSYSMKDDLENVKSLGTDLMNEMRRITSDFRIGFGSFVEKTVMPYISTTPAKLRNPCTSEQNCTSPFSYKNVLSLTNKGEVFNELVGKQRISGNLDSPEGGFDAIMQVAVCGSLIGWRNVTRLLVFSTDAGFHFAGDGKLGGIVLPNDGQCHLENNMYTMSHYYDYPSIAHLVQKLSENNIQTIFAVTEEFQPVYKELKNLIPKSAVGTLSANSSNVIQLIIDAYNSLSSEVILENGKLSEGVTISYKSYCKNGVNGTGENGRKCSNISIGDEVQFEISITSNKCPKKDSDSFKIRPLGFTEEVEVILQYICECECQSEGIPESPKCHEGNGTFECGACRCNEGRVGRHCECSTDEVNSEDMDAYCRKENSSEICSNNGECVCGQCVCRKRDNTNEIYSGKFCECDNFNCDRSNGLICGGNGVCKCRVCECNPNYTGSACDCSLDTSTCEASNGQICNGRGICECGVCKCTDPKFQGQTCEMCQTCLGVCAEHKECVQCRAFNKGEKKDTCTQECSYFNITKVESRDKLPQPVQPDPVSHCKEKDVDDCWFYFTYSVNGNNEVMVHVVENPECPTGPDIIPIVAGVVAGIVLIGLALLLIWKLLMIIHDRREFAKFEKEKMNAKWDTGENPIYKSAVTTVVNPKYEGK

B1: His-T7Int fusion protein (other)
chain: ITEIKADKTTAVANGQDAITYTVKVMKGDKPVSNQEVTFTTTLGKLSNSTEKTDTNGYAKVTLTSTTPGKSLVSARVSDVAVDVKAPEVEFFTTLTIDDGNIEIVGTGVKGKLPTVWLQYGQVNLKASGGNGKYTWRSANPAIASVDASSGQVTLKEKGTTTISVISSDNQTATYTIATPNSLIVPNMSKRVTYNDAVNTCKNFGGKLPSSQNELENVFKAWGAANKYEYYKSSQTIISWVQQTAQDAKSGVASTYDLVKQNPLNNIKASESNAYATCVK
notes: domain: 280 C-terminal residues of intimin; Purified on an agarose-nickel column; also called His-T7Intimin; His-T7Int peptide
Turning to B1, the binding result was “no binding”.
